Measured values as given in patent US20210261648A1 (published 2021).
Residue numbers refer to the chain shown, from its start.

T1: FcγRIIa type R (human, UniProt P12318 34-217)
T1 chain: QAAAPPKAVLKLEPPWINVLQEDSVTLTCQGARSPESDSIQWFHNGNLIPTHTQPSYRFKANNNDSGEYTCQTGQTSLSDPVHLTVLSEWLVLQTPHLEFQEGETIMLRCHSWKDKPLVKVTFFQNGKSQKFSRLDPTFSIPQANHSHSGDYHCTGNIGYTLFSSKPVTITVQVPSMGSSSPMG

T2: FcγRIIb (human, UniProt P31994 43-217)
T2 construct: extracellular domain; also called FcgRIIb; CD32B
T2 sequence (looked up): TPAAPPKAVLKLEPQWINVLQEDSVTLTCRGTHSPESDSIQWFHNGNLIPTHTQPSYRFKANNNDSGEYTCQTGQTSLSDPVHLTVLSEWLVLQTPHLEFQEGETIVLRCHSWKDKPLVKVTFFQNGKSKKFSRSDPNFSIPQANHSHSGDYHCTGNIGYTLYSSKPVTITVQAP

T3: FcγRIIb extracellular domain with C-terminal His tag (human, UniProt P31994 43-217)
T3 construct: extracellular domain; also called FcgRIIb
T3 sequence (looked up): T2 sequence (looked up)

B1: IL6R-BP479/IL6R-L (antibody, human IgG1, kappa)
heavy: QVQLQESGPGLVKPSETLSLTCAVSGHSISHDHAWSWVRQPPGEGLEWIGFISYSGITNYNPSLQGRVTISRDNSKNTLYLQMNSLRAEDTAVYYCARSLARTTAMDYWGEGTLVTVSSASTKGPSVFPLAPSSKSTSGGTAALGCLVKDYFPEPVTVSWNSGALTSGVHTFPAVLQSSGLYSLSSVVTVPSSSLGTQTYICNVNHKPSNTKVDKKVEPKSCDKTHTCPPCPAPDLLGDDSVFLFPPKPKDTLMISRTPEVTCVVIDLAEEDGEVKFNWYVDGVEVHNAKTKPREEQYNSTYRVVSVLTVLHQDWLNGKEYKCKVSNKALPAPIEKTISKAKGQPREPQVYTLPPSRDELTKNQVSLTCLVKGFYPSDIAVEWESNGQPENNYKTTPPVLDSDGSFFLYSKLTVDKSRWQQGNVFSCSVMHEALHNHYTQESLSLSP
light: not shown
notes: Alterations in EU numbering, introduced into IL6R-B3
B2: IL6R-BP534/IL6R-L (antibody, human IgG1, kappa)
heavy: B1 heavy with L268V, A269S, Y298D, A332R, P398L
light: not shown
notes: as for B1
B3: IL6R-BP506/IL6R-L (antibody, human IgG1, kappa)
heavy: B1 heavy with L268V, E274P, Y298D, A332R
light: not shown
notes: as for B1
B4: IL6R-BP435/IL6R-L (antibody, human IgG1, kappa)
heavy: B1 heavy with I266V, L268V, A269S, E270D, Y298D, K328A, A332R, I334T
light: not shown
notes: as for B1
B5: IL6R-BP426/IL6R-L (antibody, human IgG1, kappa)
heavy: B1 heavy with I266V, L268V, E271D, A332R
light: not shown
notes: as for B1
B6: IL6R-BP086/IL6R-L (antibody, human IgG1, kappa)
heavy: B1 heavy with D235E, D239G, I266V, L268V, A269S, E270H, G273P, K328A, A332K
light: not shown
B7: IL6R-BP176/IL6R-L (antibody, human IgG1, kappa)
heavy: B1 heavy with D239G, I266V, L268V, A269S, E270H, G273P, K328D, A332K
light: not shown
B8: IL6R-BP143/IL6R-L (antibody, human IgG1, kappa)
heavy: B1 heavy with D235E, L236Y, D239G, I266V, L268V, A269S, E270H, G273P, K328A
light: not shown
B9: IL6R-BP204/IL6R-L (antibody, human IgG1, kappa)
heavy: B1 heavy with D239G, I266V, L268V, A269S, E270H, K328A, A332R
light: not shown
B10: IL6R-BP192/IL6R-L (antibody, human IgG1, kappa)
heavy: B1 heavy with D239G, I266V, L268V, A269S, E270D, Y298D, A332K
light: not shown
B11: IL6R-BP144/IL6R-L (antibody, human IgG1, kappa)
heavy: B1 heavy with D235E, I266V, L268V, A269S, E270H, G273P, K328A
light: not shown
B12: IL6R-BP188/IL6R-L (antibody, human IgG1, kappa)
heavy: B1 heavy with I266V, L268V, A269S, E270D, A332K
light: not shown
B13: IL6R-BP129/IL6R-L (antibody, human IgG1, kappa)
heavy: B1 heavy with D239G, I266V, L268V, A269S, E270H, G273P, Y298D, A332K
light: not shown
B14: IL6R-BP133/IL6R-L (antibody, human IgG1, kappa)
heavy: B1 heavy with L236Y, D239G, I266V, L268V, A269S, E270H, G273P, A332K
light: not shown
B15: IL6R-BP205/IL6R-L (antibody, human IgG1, kappa)
heavy: B1 heavy with D239G, I266V, L268V, A269S, E270H, Y298D, A332R
light: not shown
B16: IL6R-BP193/IL6R-L (antibody, human IgG1, kappa)
heavy: B1 heavy with D239G, I266V, L268V, A269S, E270D, A332K
light: not shown
B17: IL6R-BP132/IL6R-L (antibody, human IgG1, kappa)
heavy: B1 heavy with D239G, I266V, L268V, A269S, E270H, G273P, K328A, A332K
light: not shown
B18: IL6R-BP184/IL6R-L (antibody, human IgG1, kappa)
heavy: B1 heavy with D239G, I266V, L268V, A269S, E270H, A332K
light: not shown
B19: IL6R-BP182/IL6R-L (antibody, human IgG1, kappa)
heavy: B1 heavy with D239G, I266V, L268V, A269S, E270H, Y298D, A332K
light: not shown

Target: T1, FcγRIIa type R
Test: SPR (Biacore), captured antibody, soluble FcγR

Kd [nM] | Binder
900 | B1
91 | B2
120 | B3

Target: T2, FcγRIIb
Test: SPR (Biacore), captured antibody, soluble FcγR

Kd [nM] | Binder
56 | B1
3 | B2
3.4 | B3

Target: T4, FcγRIa (human, UniProt P12314 16-292)
T4 construct: Whole entry named; also called FcgRIa; CD64A
T4 sequence (P12314 16-292): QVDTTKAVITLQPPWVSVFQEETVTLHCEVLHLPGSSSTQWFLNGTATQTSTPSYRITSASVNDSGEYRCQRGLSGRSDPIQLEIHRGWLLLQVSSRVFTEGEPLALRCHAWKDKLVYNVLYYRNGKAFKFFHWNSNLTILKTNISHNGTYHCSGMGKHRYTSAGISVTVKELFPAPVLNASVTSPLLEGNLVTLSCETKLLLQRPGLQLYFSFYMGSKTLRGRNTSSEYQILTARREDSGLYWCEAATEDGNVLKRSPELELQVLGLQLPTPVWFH
Test: SPR (Biacore), captured antibody, soluble FcγR

Kd [nM] | Binder
1 | B4
1 | B5
5.3 | B1
9.3 | B2
3.1 | B3

Target: T3, FcγRIIb extracellular domain with …
Test: SPR, captured antibody, FcgR analyte
Description: (§1) Relative binding activities were calculated for the results of analyzing interactions with the respective FcγRs according to the following method.

relative binding activity | Binder
137 relative (IL6R-BF648/IL6R-L = 100) | B6
147 relative (IL6R-BF648/IL6R-L = 100) | B7
133 relative (IL6R-BF648/IL6R-L = 100) | B8
165 relative (IL6R-BF648/IL6R-L = 100) | B9
172 relative (IL6R-BF648/IL6R-L = 100) | B10
121 relative (IL6R-BF648/IL6R-L = 100) | B11
179 relative (IL6R-BF648/IL6R-L = 100) | B12
138 relative (IL6R-BF648/IL6R-L = 100) | B13
137 relative (IL6R-BF648/IL6R-L = 100) | B14
167 relative (IL6R-BF648/IL6R-L = 100) | B15
173 relative (IL6R-BF648/IL6R-L = 100) | B16
150 relative (IL6R-BF648/IL6R-L = 100) | B17
171 relative (IL6R-BF648/IL6R-L = 100) | B18
173 relative (IL6R-BF648/IL6R-L = 100) | B19

Target: T5, FcγRIa extracellular domain with C-terminal His tag (human, UniProt P12314 16-292)
T5 construct: also called FcgRIa
T5 sequence (P12314 16-292): as above
Test: SPR, captured antibody, FcgR analyte
Description: as §1

relative binding activity | Binder
72 relative (IL6R-BF648/IL6R-L = 100) | B6
102 relative (IL6R-BF648/IL6R-L = 100) | B7
86 relative (IL6R-BF648/IL6R-L = 100) | B8
110 relative (IL6R-BF648/IL6R-L = 100) | B9
109 relative (IL6R-BF648/IL6R-L = 100) | B10
64 relative (IL6R-BF648/IL6R-L = 100) | B11
74 relative (IL6R-BF648/IL6R-L = 100) | B12
68 relative (IL6R-BF648/IL6R-L = 100) | B13
41 relative (IL6R-BF648/IL6R-L = 100) | B14
97 relative (IL6R-BF648/IL6R-L = 100) | B15
113 relative (IL6R-BF648/IL6R-L = 100) | B16
91 relative (IL6R-BF648/IL6R-L = 100) | B17
96 relative (IL6R-BF648/IL6R-L = 100) | B18
95 relative (IL6R-BF648/IL6R-L = 100) | B19

Target: T1, FcγRIIa type R
Test: SPR (Biacore); parent = IL6R-B3/IL6R-L

KD(IIaR) of the parent polypeptide/KD(IIaR) of the altered polypeptide [fold] | Binder
1.2 | B1

Target: T2, FcγRIIb
Test: SPR (Biacore); parent = IL6R-B3/IL6R-L

KD(IIb) of the parent polypeptide/KD(IIb) of the altered polypeptide [fold] | Binder
55.5 | B1
